Reference: US20050170442

Target: T1, Biotin-labeled fluorescent peptide CPRPFSVPP(S*)PDK-(5-FAM) (not fully specified)
T1 chain: CPRPFSVPPSPDK

B1: GSK3α, rHuman (protein)
chain: MSGGGPSGGGPGGSGRARTSSFAEPGGGGGGGGGGPGGSASGPGGTGGGKASVGAMGGGVGASSSGGGPGGSGGGGSGGPGAGTSFPPPGVKLGRDSGKVTTVVATLGQGPERSQEVAYTDIKVIGNGSFGVVYQARLAETRELVAIKKVLQDKRFKNRELQIMRKLDHCNIVRLRYFFYSSGEKKDELYLNLVLEYVPETVYRVARHFTKAKLTIPILYVKVYMYQLFRSLAYIHSQGVCHRDIKPQNLLVDPDTAVLKLCDFGSAKQLVRGEPNVSYICSRYYRAPELIFGATDYTSSIDVWSAGCVLAELLLGQPIFPGDSGVDQLVEIIKVLGTPTREQIREMNPNYTEFKFPQIKAHPWTKVFKSRTPPEAIALCSSLLEYTPSSRLSPLEACAHSFFDELRCLGTQLPNNRPLPPLFNFSAGELSIQPSLNAILIPPHLRSPAGTTTLTPSSQALTETPTSSDWQSTDATPTLTNSS
  TR-FRET ratio (Em520/Em495) after kinase reaction, chymotrypsin development and Tb-streptavidin detection: with GSK3a, a higher TR-FRET ratio than without GSK3α is seen
  TR-FRET ratio (Em520/Em495) in the chymotrypsin titration: with GSK3α a higher TR-FRET ratio than without GSK3α is seen
  amount of enzyme/well needed for roughly 50% maximal signal at 10 µM ATP/well (TR-FRET enzyme titration): 0.05 µg/ml for GSK3α
